Columns and labels:
GST-Crkl (SH3) = GST-Crkl (SH3) (UniProt P46109)
[1] = tested on: GST-EEEIYGEFE (SEQ. ID. NO: 1) fusion protein

Sequence of GST-Crkl (SH3) (P46109 120-303): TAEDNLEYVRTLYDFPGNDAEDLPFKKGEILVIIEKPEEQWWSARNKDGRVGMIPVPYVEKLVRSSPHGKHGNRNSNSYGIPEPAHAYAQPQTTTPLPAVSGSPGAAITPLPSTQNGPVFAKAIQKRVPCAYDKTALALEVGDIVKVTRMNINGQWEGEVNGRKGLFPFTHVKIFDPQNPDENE

Bcr-Abl tyrosine kinase in K562 cell lysate
Crkl phosphorylation in pure HL60 lysate (Bcr-Abl-) relative to pure K562 lysate (Bcr-Abl+) (GST-Crkl (SH3)): the level of Crkl phosphorylation in the pure HL60 cell lysate is only 3.5% of that observed in the pure K562 cell lysate

protein-tyrosine kinase p60^c-src (Calbiochem)
Km of phosphorylation, substrate in solution (Lineweaver-Burk) [1]: Km=2.7±1.0 µM | Km of phosphorylation, surface-immobilized substrate (Lineweaver-Burk) [1]: Km=0.36±0.033 µM | Vmax of phosphorylation, substrate in solution (Lineweaver-Burk) [1]: Vmax=8.1±3.1 (arbitrary units) | Vmax of phosphorylation, surface-immobilized substrate (Lineweaver-Burk) [1]: Vmax=9.7±0.63 (arbitrary units)

Reference: patent US20060121535
